The record followed here is patent publication US20100137420.

The target in data set [1] is cathepsin B (from THP-1 cell lysates) (UniProt P07858).
Data set [2] relates to recombinant cystatin C.
Sequence of recombinant cystatin C (chain, as listed by the source): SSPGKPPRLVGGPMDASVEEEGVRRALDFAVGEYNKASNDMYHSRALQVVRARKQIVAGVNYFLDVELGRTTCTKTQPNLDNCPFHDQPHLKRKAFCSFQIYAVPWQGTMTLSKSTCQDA

Sequence of cathepsin D (chain, as listed by the source): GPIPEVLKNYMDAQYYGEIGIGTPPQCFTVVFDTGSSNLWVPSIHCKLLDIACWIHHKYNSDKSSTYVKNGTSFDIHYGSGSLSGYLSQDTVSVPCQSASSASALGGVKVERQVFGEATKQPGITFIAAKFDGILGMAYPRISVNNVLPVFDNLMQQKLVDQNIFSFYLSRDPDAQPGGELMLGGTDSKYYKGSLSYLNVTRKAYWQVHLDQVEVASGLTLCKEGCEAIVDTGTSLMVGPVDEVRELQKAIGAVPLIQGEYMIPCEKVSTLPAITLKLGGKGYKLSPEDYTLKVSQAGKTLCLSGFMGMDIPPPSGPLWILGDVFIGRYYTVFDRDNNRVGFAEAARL

Regarding cathepsin D, the “cathepsin B activity (fluorogenic Ac-Arg-Arg-AFC assay)” value in data set [1] is “Cathepsin D and MMP-2 alone had no effect on cathepsin B activity”. For the same substance, the “cleavage of recombinant cystatin C” value in data set [2] was “cathepsin D cleaved cystatin C at four different sites, and yielded a 12.5 kD fragment following cleavage from the C terminal region”.
